Data taken from the DeepSol protein solubility set.

Experiment: soluble on expression in E. coli; label from the status in PepcDB or PDB records

Row | Sequence | soluble on expression in E. coli
1 | SLSERTFNWKNKDIRAQVDVVDSKLLPTLLLRNALVLNPYVKQWLKKNIWIYQDRIVYVGHELPNRAEEIHTIDCEGKYIVPGYIEPHAHPFQIYNPQTLAEYVSQYGTTTFVNDNLFLLLQSGKKKALTILNELKKQPVQYFWWSRYDLQTEVLNEDHVLPFDVRKQWIEHPDVIQGGEMTGWPRLVDGDDLMLHCMQATKKQRKRIEGHFPGASDKTLTKMKLFGADCDHEAMTGDEVMRRLELGYYVSLRNSSIRPDVRKILQELHEKGFRYYDHFFYTTDGATPNFYKGGMTNELIRIALEEGVPAIDAYNMASFNIAKYYQMDDYLGVVGPGRLASLNILEDPLNPNPVTVLSKGTILRENGCDLKAFTKTDWHKGGLVPLELSYDMTMDDLQFSMPMGVKMRNAVIMEPYMIEIDNSMEQLSFDHDESYLTMLDRHGKWRVNTMIKGFASSVQGFVSSFTTTGDIVAIGKNKADMLLAFARMKEIGGGIVLAENGNILHEIPLALCGCASSEAYEDVLEKEQKLRDLLTERGYEFCDPIYTLLFLQSTHLPYIRITPRGIFDVMKKTVLFPSIMR | soluble
2 | SLSMKLLIADDEDTIRNGIAKYIKLHTDRFSQIYLAENGQQALDIILQYQPDMMLLDVQMPLKTGLEVLQEAQKLSLVPKTIILSGYDDFEYARKALRYGAKDYLLKPCRSSEILEAINKLVQEQLGTKEG | not soluble
3 | SLSRRKPNPVIVADIRQAEGALAEIATIDRKVGEIEAQMNEAIDAAKARASQKSAPLLARRKELEDGVATFATLNKTEMFKDRKSLDLGFGTIGFRLSTQIVQMSKITKDMTLERLRQFGISEGIRIKEDVNKEAMQGWPDERLEMVGLKRRTTDAFYIEINREEVADTAA | soluble
4 | SLTAAENIQEQLYPAPIKTVEEGSPAARAGVRPGDVLLRVNGQPVTDVLAYRHQLERGVVTLEVARPHEAPRVMTGVAGTAQDHHRLMLPQPPSLDETLTFTVEWEDPGLDFEEVLFDGIKKCANKCDFCYVHQMPRGFRKSLYIMDDDYRLSFLYGSFVTLTNLTEGDINRILDENLSPLYVSVHTANQDLRQDMMKWWKLKVKDPQAVQIREMIERLESIDLYTQIVLVPERNDRENLDETVEYLSSRPNVISAAVVPIGLTAHRTNLPDVRTFTPEEAQDTLRRLNVWRRKFLAERGTRFIFPSDELYLLAGEPLPTEEEYEGFPMLENGVGMIRDFLTEALPPLPAALPEPRKVILGTGLLFADSLARAIEPLRQIEGLDIEVRAIENKTFGKVTTVAGLLTGRCFRHAVQPGEADLLIVPPTTLRYGTELMIDDTSLGELRRELKMDVRAGGATLGELARVVLEGAQSSGHQFGMSAHAVKDSGRDDVAPSASRAQGGAAPEESLEEDVAESGMHGRGQA | soluble
5 | SLVKLSTPLRVVTTLPHQPGRTGYIVFKKVPESFRCDSIASFYRRVRRSMGLREAVVFLTAAEVDRPLHEVIDEPETHIIATVGLKPPACPGGTAGAPRPGTINIAVATSAGLSRAGAIDLLRVVAEAKAAAAAEALLPCLHRATGTATDAIAVLHTPGATDFSGFYTRLGGLVGRSLYFALVDAAVARRGPDSLLRALTGMSMEGLLELFRRVYMQSPIPGVPVEEALGRAGRMLERMMRDPNVAALLIAARELDLHGSAGAIPGLSRSGYKGDSKAIVADELLAAALAEYLAGFKGLLATIWVEKLKSMGLADAGLPMFMDDMVSAVVGSLVSRLHDEVREG | soluble
6 | SLVYDSNNNLIADLGAEKRESISSDSIPMKLVNAVTSIEDHRFFKHRGVDIYRIIGAAWSNLLHKSTQGGSTLDQQLIKLAYFSTKESDQTLKRKAQEVWLSLQMEKKYTKEEILTFYVNKVYMGNGNYGMRTAAKSYYGKDLKDLSIAQLATLAGIPQAPTQYDPYAQP | not soluble
7 | SLYAISISERTLEKVNAIIESEIKPNAYLASGDLLVHTSRLFMDTPYQANTLVHHSDLPYALVVNFDGMDCFTYLDYVVALSQASDTPSFFSSLMNIRYKKSHIHFYDRKHFFSDWYALSPQIAIDITEKMSPDAITIPKQLNQKVEGGEYIQGLGVIPRMITYIPSDKITQSVLDNLQNGDLVGVYSPKIGLDVTHTGIIVKENNQILYRNASSLSKYNKVVDLPFMDYIRSKPGIVVLRVE | soluble
8 | SMALYRVVLLGDPGVGKTSLASLFAGKQERDLHEQLGEDVYERTLTVDGEDTTLVVVDTWEAEKLDKSWSQESCLQGGSAYVIVYSIADRGSFESASELRIQLRRTHQADHVPIILVGNKADLARCREVSVEEGRACAVVFDCKFIETSATLQHNVAELFEGVVRQLRLRRRDSA | soluble
9 | SMDTNADIYDQTASTFFPNGEAMWKKMVEDLKKAEKFIFLEYYIIEEGLMWNRILDILEQKVAQGVEVKMLYDDIGCMATLTGDYAHRLRQLGIEAHKFNKVIPRLTVAYNNRDHRKILIVDGQIAYTGGVNLADEYINHVERFGYWKDSGIRLDGLAVKALTRLFLTTWYINRGEISDFDQYH | not soluble
10 | SMGSDDEEQEDPADYCKGGYHPVKIGDLFNGRYHVIRKLGWGHFSTVWLCWDMQGKRFVAMKVVKSAQHYTETALDEIKLLKCVRESDPSDPNKDMVVQLIDDFKISGMNGIHVCMVFEVLGHHLLKWIIKSNYQGLPVRCVKSIIRQVLQGLDYLHSKCKIIHTDIKPENILMCVDDAYVRRMAAEATEWQKAGAPPPSGSAVSTAPAADLLVNPLDPRNADKIRVKIADLGNACWVHKHFTEDIQTRQYRSIEVLIGAGYSTPADIWSTACMAFELATGDYLFEPHSGEDYSRDEDHIAHIIELLGSIPRHFALSGKYSREFFNRRGELRHITKLKPWSLFDVLVEKYGWPHEDAAQFTDFLIPMLEMVPEKRASAGECLRHPWLNS | soluble
11 | SMKFQARVLTLYPEMFPGFLGCSLAGQALKQGIWSLETVQIRDFALDKHHSVDDTPAGGGAGMVMRADVLAAALDSCPNDSPRLLMSPRGRLLNQAYARSLARSSGVTLVCGRFEGVDERIIEARELEEVSIGDYILSGGETAALVLLDAIVRLLPGVMGNEISAKCESFENGLLEHPQYTRPAVFEGRGIPPVLTSGHHKAIANWRQQQAESLTRQRRPDLYALYNKNRQKT | soluble
12 | SMSKRTFSTVLPQIDTTGQLFVQTRKGQEVLIKVKHFMKQHILPAEKEVTEFYVQNENSVDKWGKPLVIDKLKEMAKVEGLWNLFLPAVSGLSHVDYALIAEETGKCFFAPDVFNCQAPDTGNMEVLHLYGSEEQKKQWLEPLLQGNITSCFCMTEPDVASSDATNIECSIQRDEDSYVINGKKWWSSGAGNPKCKIAIVLGRTQNTSLSRHKQHSMILVPMNTPGVKIIRPLSVFGYTDNFHGGHFEIHFNQVRVPATNLILGEGRGFEISQGRLGPGRIHHCMRTVGLAERALQIMCERATQRIAFKKKLYAHEVVAHWIAESRIAIEKIRLLTLKAAHSMDTLGSAGAKKEIAMIKVAAPRAVSKIVDWAIQVCGGAGVSQDYPLANMYAITRVLRLADGPDEVHLSAIATMELRDQAKRLTAKI | soluble
13 | SNAAKPLPKEMEDFVQSSGENGVVVFSLGSMVSNMTEERANVIASALAQIPQKVLWRFDGNKPDTLGLNTRLYKWIPQNDLLGHPKTRAFITHGGANGIYEAIYHGIPMVGIPLFADQPDNIAHMKARGAAVRVDFNTMSSTDLLNALKRVINDPSYKENVMKLSRIQHD | soluble
14 | SNAEELQALVDNIPAAIYHLDVSGQATIRFRPPAFLKTLVSEHAGTTRLNTLSMIHHDDRHMLSNAYSKLREAKHSLTLVYRIVTPEGKLHWIEDHMRSSFSDDGLFSGIDGILCEVT | soluble
15 | SNAMHILVTGFAPFDNQNINPSWEAVTQLEDIIGTHTIDKLKLPTSFKKVDNIINKTLASNHYDVVLAIGQAGGRNAITPERVAINIDDARIPDNDDFQPIDQAIHLDGAPAYFSNLPVKAMTQSIINQGLPGALSNSAGTFVCNHTLYHLGYLQDKHYPHLRFGFIHVPYIPEQVIGKPDTPSMPLEKIVAGLTAAIEAISNDEDLHLALGTTE | soluble
16 | SNAMKESNHLMDTPYSYLIRSIGMKLKTSADARLAELGLNSQQGRMIGYIYENQESGIIQKDLAQFFGRRGASITSMLQGLEKKGYIERRIPENNARQKNIYVLPKGAALVEEFNNIFLEVEESITKGLTKDEQKQLMSILIKVNRSM | soluble
17 | SNAMKTLFLQYPACSTCQKAKKWLIENNIEYTNRLIVDDNPTVEELKAWIPLSGLPVKKFFNTSGVVYKELKLSSKLPTMTEEEQIALLATNGKLVKRPLVVTERFVLVGFKPEEWEKLK | soluble
18 | SNAMKWKKSLAGLSSYKPGKREEEVMAELGLTKITKLSSNENPLGTSKKVAAIQANSSVETEIYPDGWASSLRKEVADFYQLEEEELIFTAGVDELIELLTRVLLDTTTNTVMATPTFVQYRQNALIEGAEVREIPLLQDGEHDLEGMLNAIDEKTTIVWICNPNNPTGNYIELADIQAFLDRVPSDVLVVLDEAYIEYVTPQPEKHEKLVRTYKNLIITRTFSKIYGLASARVGYGIADKEIIRQLNIVRPPFNTTSIGQKLAIEAIKDQAFIGECRTSNANGIKQYEAFAKRFEKVKLYPANGNFVLIDLGIEAGTIFSYLEKNGYITRSGAALGFPTAVRITIGKEEDNSAVIALLEKLL | soluble
19 | SNAMLHIDDAMIEDAVTPQAAQEVLHAAFLDFGRGSAAMQRRVRTEAGGVKLSTLGAVIPGQGVAGAKVYTTIKGQFQFVILLFSAADGRPLATCDAGTLTRKRTAACTVLAAGALARPRSSVLGLFGAGTQGAEHAAQLSARFALEAILVHDPYASPEILERIGRRCGVPARMAAPADIAAQADIVVTATRSTTPLFAGQALRAGAFVGAIGSSLPHTRELDDEALRRARAVVVEWREQTLSEAGDLVLAAPDTGLDAKVVELADVLAGRAAARQADEDIVIYKSVGVGLEDVALAGYAYRRLAAQRGWPAP | soluble
20 | SNAMNDIILKSLSTLITEQRNPNSVDIDRQSTLEIVRLMNEEDKLVPLAIESCLPQISLAVEQIVQAFQQGGRLIYIGAGTSGRLGVLDASECPPTFGVSTEMVKGIIAGGECAIRHPVEGAEDNTKAVLNDLQSIHFSKNDVLVGIAASGRTPYVIAGLQYAKSLGALTISIASNPKSEMAEIADIAIETIVGPEILTGSSRLKSGTAQKMVLNMLTTASMILLGKCYENLMVDVQASNEKLKARAVRIVMQATDCNKTLAEQTLLEADQNAKLAIMMILSTLSKSEAKVLLERHQGKLRNALSK | soluble
21 | SNAMNFFTSPFSGIPLDQQVTNPNIIVGKHSYYSGYYHGHSFDDCVRYLHPERDDVDKLVIGSFCSIGSGAVFMMAGNQGHRSDWISTFPFFYQDNDNFADARDGFTRSGDTIIGHDVWIGTEAMIMPGVKIGHGAIIASRSVVTKDVAPYEVVGSNPAKHIKFRFSDVEIAMLLEMAWWNWPESWLKESMQSLCSSDIEGLYLNWQSKART | soluble
22 | SNAMRSAQVYRWQIPMDAGVVLRDRRLKTRDGLYVCLRDGEREGWGEISPLPGFSQETWEEAQTALLTWVNDWLQGSEGLPEMPSVAFGASCALAELTGVLPEAADYRAAPLCTGDPDDLVLRLADMPGEKIAKVKVGLYEAVRDGMVVNLLLEAIPDLHLRLDANRAWTPLKAQQFAKYVNPDYRARIAFLEEPCKTRDDSRAFARETGIAIAWDESLREADFTFEAEEGVRAVVIKPTLTGSLDKVREQVAAAHALGLTAVISSSIESSLGLTQLARIAAWLTPGTLPGLDTLHLMQAQQIRPWPGSALPCLKREELERLL | soluble
23 | SNAMSDTLYIKMDQAVEITKKQVTVGDVAKLQCKNKNITNRLKSMKLLEDTTKGKKRYIVSIMKIIEMADQTFQNVDIQNIGETECVVEFKTPKKDDGPM | soluble
